# Source: the supplement of paper PMC9112550, “Optimization of the antimicrobial peptide Bac7 by deep mutational scanning” (BMC Biology, 2022)
# Tested on: Escherichia coli TOP10
# Experiment: shrunken log2 fold change of peptide-encoding DNA abundance (4.5 h post-induction vs induction); higher = less antimicrobial activity (less host growth inhibition)
# Details: time post-induction: 4.5 h; library: site-saturation at positions 5, 18, 19, 20
# 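Further: peptides expressed intracellularly from a pBAD plasmid library in pooled LB shake-flask culture, induced with 0.3% L-arabinose, DNA abundance read by NGS, three biological replicates, DESeq2 with apeglm shrinkage.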
row,Sequence,shrunken log2 fold change
1,RRIRIRPPRLPRPRPRPNVCPRP,-0.204
2,RRIRWRPPRLPRPRPRPPFAPRP,0.544
3,RRIRPRPPRLPRPRPRPKWDPRP,0.319
4,RRIRPRPPRLPRPRPRPHGKPRP,0.0675
5,RRIRQRPPRLPRPRPRPRPLPRP,0.382
6,RRIRERPPRLPRPRPRPWSMPRP,-0.707
7,RRIRMRPPRLPRPRPRPSRAPRP,1.18
8,RRIRLRPPRLPRPRPRPVHRPRP,0.119
9,RRIRHRPPRLPRPRPRPEWNPRP,-0.294
10,RRIRPRPPRLPRPRPRPIWGPRP,0.0815
11,RRIRWRPPRLPRPRPRPRNAPRP,0.0837
12,RRIRARPPRLPRPRPRPIKGPRP,0.3
13,RRIRSRPPRLPRPRPRPCWHPRP,-0.245
14,RRIRRRPPRLPRPRPRPHPTPRP,0.563
15,RRIRCRPPRLPRPRPRPDVHPRP,-0.241
16,RRIRKRPPRLPRPRPRPIGFPRP,-0.00176
17,RRIRRRPPRLPRPRPRPQRSPRP,0.302
18,RRIRFRPPRLPRPRPRPCALPRP,-0.554
19,RRIRARPPRLPRPRPRPPYGPRP,0.0793
20,RRIRQRPPRLPRPRPRPLGAPRP,0.285
21,RRIRARPPRLPRPRPRPRLMPRP,0.216
22,RRIRWRPPRLPRPRPRPETQPRP,0.0616
23,RRIRLRPPRLPRPRPRPYEFPRP,-0.111
24,RRIRGRPPRLPRPRPRPRCVPRP,0.689
25,RRIRFRPPRLPRPRPRPYIMPRP,-1.09

row,Sequence,shrunken log2 fold change
1,RRIRCRPPRLPRPRPRPACQPRP,0.305
2,RRIRARPPRLPRPRPRPVRDPRP,0.315
3,RRIRERPPRLPRPRPRPSRCPRP,0.0232
4,RRIRERPPRLPRPRPRPCVTPRP,-0.322
5,RRIRVRPPRLPRPRPRPSTWPRP,-0.184
6,RRIRHRPPRLPRPRPRPCVCPRP,0.0978
7,RRIRKRPPRLPRPRPRPWPIPRP,0.891
8,RRIRGRPPRLPRPRPRPKMNPRP,0.407
9,RRIRCRPPRLPRPRPRPWHYPRP,-0.51
10,RRIRVRPPRLPRPRPRPVHNPRP,-0.404
11,RRIRMRPPRLPRPRPRPPHTPRP,0.824
12,RRIRSRPPRLPRPRPRPFPWPRP,-0.0834
13,RRIRYRPPRLPRPRPRPQHNPRP,-1.13
14,RRIRERPPRLPRPRPRPGFAPRP,0.604
15,RRIRPRPPRLPRPRPRPTNAPRP,0.167
16,RRIRSRPPRLPRPRPRPQRKPRP,0.264
17,RRIRMRPPRLPRPRPRPSQVPRP,-0.0436
18,RRIRIRPPRLPRPRPRPRWLPRP,0.119
19,RRIRLRPPRLPRPRPRPPGWPRP,0.218
20,RRIRKRPPRLPRPRPRPYYEPRP,-0.493
21,RRIRGRPPRLPRPRPRPEFYPRP,0.0687
22,RRIRIRPPRLPRPRPRPQPTPRP,0.115
23,RRIRPRPPRLPRPRPRPKPLPRP,0.567
24,RRIRARPPRLPRPRPRPEMMPRP,1.12
25,RRIRKRPPRLPRPRPRPPCTPRP,0.193

row,Sequence,shrunken log2 fold change
1,RRIRFRPPRLPRPRPRPFDCPRP,-0.0469
2,RRIRVRPPRLPRPRPRPIKQPRP,0.0119
3,RRIRFRPPRLPRPRPRPQLRPRP,0.0318
4,RRIRSRPPRLPRPRPRPMGFPRP,-0.0207
5,RRIRQRPPRLPRPRPRPPGIPRP,-0.0579
6,RRIRFRPPRLPRPRPRPKCRPRP,-0.0272
7,RRIRCRPPRLPRPRPRPKQLPRP,-0.0668
8,RRIRKRPPRLPRPRPRPPYMPRP,-0.209
9,RRIRERPPRLPRPRPRPSIGPRP,-0.406
10,RRIRQRPPRLPRPRPRPHNRPRP,-0.372
11,RRIRDRPPRLPRPRPRPPWTPRP,0.238
12,RRIRPRPPRLPRPRPRPFASPRP,0.132
13,RRIRYRPPRLPRPRPRPIKKPRP,0.017
14,RRIRARPPRLPRPRPRPWNAPRP,-0.124
15,RRIRWRPPRLPRPRPRPHKLPRP,-0.135
16,RRIRMRPPRLPRPRPRPTGVPRP,0.224
17,RRIRKRPPRLPRPRPRPLVYPRP,-0.23
18,RRIRVRPPRLPRPRPRPRIIPRP,-0.0581
19,RRIRYRPPRLPRPRPRPIVCPRP,-0.134
20,RRIRDRPPRLPRPRPRPNYLPRP,-0.126
21,RRIRSRPPRLPRPRPRPLEQPRP,0.0284
22,RRIRARPPRLPRPRPRPSYDPRP,-0.52
23,RRIRMRPPRLPRPRPRPQVCPRP,0.0261
24,RRIRNRPPRLPRPRPRPHEHPRP,-0.155
25,RRIRPRPPRLPRPRPRPDFTPRP,-0.411

row,Sequence,shrunken log2 fold change
1,RRIRFRPPRLPRPRPRPCGKPRP,-0.018
2,RRIRLRPPRLPRPRPRPRPPPRP,1.58
3,RRIRRRPPRLPRPRPRPVSTPRP,-0.134
4,RRIRSRPPRLPRPRPRPMGYPRP,-0.0075
5,RRIRVRPPRLPRPRPRPVDKPRP,-0.278
6,RRIRQRPPRLPRPRPRPPKVPRP,2.65e-05
7,RRIRFRPPRLPRPRPRPEYMPRP,-0.421
8,RRIRYRPPRLPRPRPRPKWHPRP,-0.358
9,RRIRARPPRLPRPRPRPVSPPRP,0.664
10,RRIRLRPPRLPRPRPRPGSGPRP,0.337
11,RRIRERPPRLPRPRPRPYNLPRP,-0.321
12,RRIRGRPPRLPRPRPRPPKPPRP,0.919
13,RRIRMRPPRLPRPRPRPFYSPRP,-0.0137
14,RRIRGRPPRLPRPRPRPMAHPRP,0.63
15,RRIRSRPPRLPRPRPRPENYPRP,-0.127
16,RRIRHRPPRLPRPRPRPFTNPRP,-0.0272
17,RRIRWRPPRLPRPRPRPWYAPRP,-0.746
18,RRIRGRPPRLPRPRPRPYETPRP,0.16
19,RRIRWRPPRLPRPRPRPSAIPRP,-0.201
20,RRIRRRPPRLPRPRPRPLRCPRP,0.714
21,RRIRDRPPRLPRPRPRPFTEPRP,-0.165
22,RRIRRRPPRLPRPRPRPHSTPRP,0.0894
23,RRIRFRPPRLPRPRPRPWDDPRP,-0.636
24,RRIRKRPPRLPRPRPRPGRRPRP,0.438
25,RRIRHRPPRLPRPRPRPGHIPRP,-0.282

row,Sequence,shrunken log2 fold change
1,RRIRFRPPRLPRPRPRPCTGPRP,0.0368
2,RRIRMRPPRLPRPRPRPFAEPRP,0.625
3,RRIRNRPPRLPRPRPRPEDFPRP,0.0401
4,RRIRDRPPRLPRPRPRPNQCPRP,-0.436
5,RRIRNRPPRLPRPRPRPTTHPRP,0.102
6,RRIRFRPPRLPRPRPRPSIKPRP,-0.42
7,RRIRARPPRLPRPRPRPLDVPRP,-0.07
8,RRIRDRPPRLPRPRPRPAPPPRP,0.71
9,RRIRIRPPRLPRPRPRPHNAPRP,-0.549
10,RRIRQRPPRLPRPRPRPRHAPRP,-0.0685
11,RRIRYRPPRLPRPRPRPGNLPRP,0.0185
12,RRIRTRPPRLPRPRPRPFARPRP,0.00253
13,RRIRERPPRLPRPRPRPEWNPRP,-0.197
14,RRIRHRPPRLPRPRPRPMFKPRP,-0.625
15,RRIRDRPPRLPRPRPRPFCRPRP,0.0534
16,RRIRPRPPRLPRPRPRPPYDPRP,-0.173
17,RRIRLRPPRLPRPRPRPINVPRP,-0.54
18,RRIRNRPPRLPRPRPRPSPWPRP,0.0438
19,RRIRYRPPRLPRPRPRPIWYPRP,-0.0575
20,RRIRERPPRLPRPRPRPKSLPRP,-0.515
21,RRIRNRPPRLPRPRPRPARSPRP,0.679
22,RRIRIRPPRLPRPRPRPPFMPRP,-0.256
23,RRIRIRPPRLPRPRPRPTQQPRP,0.0936
24,RRIRWRPPRLPRPRPRPVKWPRP,-0.0659
25,RRIRMRPPRLPRPRPRPANDPRP,0.0988

row,Sequence,shrunken log2 fold change
1,RRIRQRPPRLPRPRPRPPYKPRP,-0.166
2,RRIRHRPPRLPRPRPRPEWAPRP,-0.0848
3,RRIRYRPPRLPRPRPRPQHWPRP,0.0376
4,RRIRKRPPRLPRPRPRPPPGPRP,0.961
5,RRIRMRPPRLPRPRPRPTILPRP,-0.0108
6,RRIRVRPPRLPRPRPRPHKWPRP,-0.0581
7,RRIRPRPPRLPRPRPRPQTFPRP,-0.495
8,RRIRMRPPRLPRPRPRPMMSPRP,0.0456
9,RRIRTRPPRLPRPRPRPEEIPRP,0.0464
10,RRIRARPPRLPRPRPRPKCQPRP,0.432
11,RRIRWRPPRLPRPRPRPHRVPRP,-0.0781
12,RRIRMRPPRLPRPRPRPACMPRP,0.64
13,RRIRGRPPRLPRPRPRPDLAPRP,1.59
14,RRIRGRPPRLPRPRPRPGESPRP,0.584
15,RRIRVRPPRLPRPRPRPWAYPRP,-0.323
16,RRIRWRPPRLPRPRPRPDPWPRP,0.0147
17,RRIRIRPPRLPRPRPRPLYSPRP,-0.674
18,RRIRQRPPRLPRPRPRPQKCPRP,-0.00409
19,RRIRTRPPRLPRPRPRPKAGPRP,0.768
20,RRIRSRPPRLPRPRPRPQYNPRP,-0.863
21,RRIRRRPPRLPRPRPRPTSIPRP,-0.107
22,RRIRHRPPRLPRPRPRPAVDPRP,0.0722
23,RRIRERPPRLPRPRPRPSFYPRP,-0.308
24,RRIRQRPPRLPRPRPRPWAKPRP,-0.000896
25,RRIRCRPPRLPRPRPRPLYNPRP,-1.22
